Results as given in patent publication US10562947B2, “Compositions and methods for preventing or treating diseases, conditions or processes characterized by aberrant fibroblast proliferation and extracellular matrix deposition” (MOERAE MATRIX, INC., priority 2011, dated 2020).

Columns and labels:
Experiment in all cases: Kinase Profiling Assay
Format in all cases: biochemical
Details in all cases: 100 μM peptide
GRK6(h) = target: T1, GRK6(h) (Homo sapiens, UniProt P43250)
T1 construct: purchased Millipore
Method in brief: (§1)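 Each kinase in a 266-member human panel is assayed, in duplicate, for activity in the presence of MK2 inhibitory peptides to gauge specificity.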

CSK(h) = CSK(h) (Homo sapiens, UniProt P41240)
Method in brief: as §1

EphA8(h) = target: T2, EphA8(h) (Homo sapiens, UniProt P29322)
T2 sequence (P29322 28-1005): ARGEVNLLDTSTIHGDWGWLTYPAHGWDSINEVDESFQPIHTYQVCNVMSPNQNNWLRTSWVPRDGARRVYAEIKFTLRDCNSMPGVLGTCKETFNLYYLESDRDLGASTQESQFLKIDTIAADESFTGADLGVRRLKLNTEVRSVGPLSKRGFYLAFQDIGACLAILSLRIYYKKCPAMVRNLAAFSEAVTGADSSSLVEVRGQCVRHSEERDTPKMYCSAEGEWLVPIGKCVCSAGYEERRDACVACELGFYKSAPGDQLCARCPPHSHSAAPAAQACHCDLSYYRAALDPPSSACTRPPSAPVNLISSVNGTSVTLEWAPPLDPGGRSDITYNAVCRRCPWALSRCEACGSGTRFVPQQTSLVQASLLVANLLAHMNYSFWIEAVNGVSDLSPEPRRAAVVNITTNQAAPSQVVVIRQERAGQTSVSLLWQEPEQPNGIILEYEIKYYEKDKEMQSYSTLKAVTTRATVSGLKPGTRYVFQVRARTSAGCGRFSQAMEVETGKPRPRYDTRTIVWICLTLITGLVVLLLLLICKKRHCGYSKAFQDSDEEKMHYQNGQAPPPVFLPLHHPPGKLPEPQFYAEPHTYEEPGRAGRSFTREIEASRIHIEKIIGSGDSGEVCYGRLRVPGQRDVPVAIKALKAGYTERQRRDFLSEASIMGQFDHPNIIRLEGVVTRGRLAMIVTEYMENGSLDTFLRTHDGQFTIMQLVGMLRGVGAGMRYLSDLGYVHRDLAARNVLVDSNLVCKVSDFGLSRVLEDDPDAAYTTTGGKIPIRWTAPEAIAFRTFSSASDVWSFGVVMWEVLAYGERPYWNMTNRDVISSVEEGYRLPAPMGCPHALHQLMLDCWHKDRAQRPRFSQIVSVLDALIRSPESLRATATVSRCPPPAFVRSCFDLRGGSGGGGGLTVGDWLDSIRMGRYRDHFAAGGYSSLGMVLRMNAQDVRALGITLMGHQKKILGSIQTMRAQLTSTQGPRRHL
Method in brief: as §1

Syk(h) = Syk(h) (Homo sapiens, UniProt P43405)
Method in brief: as §1

Tie2(Y897S)(h) = Tie2(Y897S)(h) (Homo sapiens, UniProt Q02763, Y897S)
Method in brief: as §1

TAK1(h) = target: T3, TAK1(h) (Homo sapiens, UniProt O43318)
T3 sequence (O43318 1-303 limits assumed): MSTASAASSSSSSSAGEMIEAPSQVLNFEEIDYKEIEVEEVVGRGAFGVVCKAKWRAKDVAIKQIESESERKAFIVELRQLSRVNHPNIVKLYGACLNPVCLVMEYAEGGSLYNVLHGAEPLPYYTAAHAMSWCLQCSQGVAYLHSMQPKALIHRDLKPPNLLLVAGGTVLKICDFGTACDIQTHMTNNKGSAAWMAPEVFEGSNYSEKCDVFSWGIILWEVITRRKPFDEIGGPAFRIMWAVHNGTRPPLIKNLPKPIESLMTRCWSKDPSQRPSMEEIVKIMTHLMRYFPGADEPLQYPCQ
Method in brief: as §1

BrSK2(h) = target: T4, BrSK2(h) (Homo sapiens, UniProt Q8IWQ3)
T4 sequence (Q8IWQ3 1-736): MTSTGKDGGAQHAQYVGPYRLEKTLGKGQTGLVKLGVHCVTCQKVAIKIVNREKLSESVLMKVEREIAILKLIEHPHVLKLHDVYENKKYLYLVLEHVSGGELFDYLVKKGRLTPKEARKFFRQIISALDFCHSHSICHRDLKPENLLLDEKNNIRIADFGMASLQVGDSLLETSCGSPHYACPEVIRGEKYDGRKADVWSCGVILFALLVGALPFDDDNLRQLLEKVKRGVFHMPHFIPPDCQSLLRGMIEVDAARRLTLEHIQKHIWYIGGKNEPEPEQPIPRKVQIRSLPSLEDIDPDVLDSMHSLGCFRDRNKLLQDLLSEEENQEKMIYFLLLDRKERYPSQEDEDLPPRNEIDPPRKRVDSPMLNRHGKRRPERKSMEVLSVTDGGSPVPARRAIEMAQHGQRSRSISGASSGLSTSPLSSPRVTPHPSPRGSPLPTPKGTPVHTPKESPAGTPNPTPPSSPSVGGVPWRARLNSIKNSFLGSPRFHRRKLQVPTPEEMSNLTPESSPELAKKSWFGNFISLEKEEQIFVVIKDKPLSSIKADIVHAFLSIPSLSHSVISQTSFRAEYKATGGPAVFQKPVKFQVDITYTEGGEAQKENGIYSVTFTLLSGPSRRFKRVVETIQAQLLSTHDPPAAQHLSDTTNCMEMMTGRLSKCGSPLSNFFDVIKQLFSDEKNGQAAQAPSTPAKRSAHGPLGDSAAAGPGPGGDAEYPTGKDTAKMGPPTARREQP
Method in brief: as §1

LIMK1(h) = LIMK1(h) (Homo sapiens, UniProt P53667)
Method in brief: as §1

Chain of Tie2(Y897S)(h) (Q02763 23-1124 Y897S): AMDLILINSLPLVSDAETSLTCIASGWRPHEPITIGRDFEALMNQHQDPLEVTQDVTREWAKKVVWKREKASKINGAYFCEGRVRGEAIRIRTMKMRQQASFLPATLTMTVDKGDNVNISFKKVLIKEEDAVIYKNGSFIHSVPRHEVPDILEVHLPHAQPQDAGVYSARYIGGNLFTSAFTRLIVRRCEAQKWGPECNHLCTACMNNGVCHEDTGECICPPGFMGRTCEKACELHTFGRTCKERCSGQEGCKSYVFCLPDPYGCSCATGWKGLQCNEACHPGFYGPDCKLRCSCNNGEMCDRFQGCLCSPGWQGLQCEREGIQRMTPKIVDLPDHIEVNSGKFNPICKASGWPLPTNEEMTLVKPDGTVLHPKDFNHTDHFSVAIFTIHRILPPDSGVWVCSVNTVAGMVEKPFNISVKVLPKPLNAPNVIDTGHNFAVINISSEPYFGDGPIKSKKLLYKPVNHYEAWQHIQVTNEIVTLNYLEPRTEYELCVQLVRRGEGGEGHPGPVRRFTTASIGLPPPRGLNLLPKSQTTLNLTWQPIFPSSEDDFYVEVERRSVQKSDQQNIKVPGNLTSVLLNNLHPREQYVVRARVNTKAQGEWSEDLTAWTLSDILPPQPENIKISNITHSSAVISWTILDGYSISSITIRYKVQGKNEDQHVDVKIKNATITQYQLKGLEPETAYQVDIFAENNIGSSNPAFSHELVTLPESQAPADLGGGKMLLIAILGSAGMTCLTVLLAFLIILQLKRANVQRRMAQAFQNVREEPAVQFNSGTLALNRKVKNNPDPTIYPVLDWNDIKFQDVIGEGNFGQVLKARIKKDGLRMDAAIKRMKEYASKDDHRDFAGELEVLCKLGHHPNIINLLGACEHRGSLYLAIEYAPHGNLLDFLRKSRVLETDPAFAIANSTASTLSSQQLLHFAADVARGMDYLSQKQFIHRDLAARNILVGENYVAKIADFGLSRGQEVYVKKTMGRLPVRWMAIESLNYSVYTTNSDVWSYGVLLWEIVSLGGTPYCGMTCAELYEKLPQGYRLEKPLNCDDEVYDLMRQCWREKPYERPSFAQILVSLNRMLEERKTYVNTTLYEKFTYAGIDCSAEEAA
Chain of CSK(h) (P41240 whole entry): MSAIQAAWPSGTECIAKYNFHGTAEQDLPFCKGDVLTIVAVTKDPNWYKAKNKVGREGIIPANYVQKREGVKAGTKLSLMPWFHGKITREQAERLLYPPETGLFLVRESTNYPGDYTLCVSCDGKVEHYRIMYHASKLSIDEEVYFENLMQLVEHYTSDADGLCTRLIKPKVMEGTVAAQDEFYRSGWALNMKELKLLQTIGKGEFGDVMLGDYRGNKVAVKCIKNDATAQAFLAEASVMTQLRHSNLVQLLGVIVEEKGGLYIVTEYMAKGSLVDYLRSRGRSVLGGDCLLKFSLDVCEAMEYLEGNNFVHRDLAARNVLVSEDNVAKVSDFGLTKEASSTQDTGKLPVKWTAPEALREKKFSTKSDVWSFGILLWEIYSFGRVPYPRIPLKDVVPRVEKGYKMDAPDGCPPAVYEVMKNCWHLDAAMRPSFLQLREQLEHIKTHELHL
Chain of LIMK1(h) (P53667 whole entry): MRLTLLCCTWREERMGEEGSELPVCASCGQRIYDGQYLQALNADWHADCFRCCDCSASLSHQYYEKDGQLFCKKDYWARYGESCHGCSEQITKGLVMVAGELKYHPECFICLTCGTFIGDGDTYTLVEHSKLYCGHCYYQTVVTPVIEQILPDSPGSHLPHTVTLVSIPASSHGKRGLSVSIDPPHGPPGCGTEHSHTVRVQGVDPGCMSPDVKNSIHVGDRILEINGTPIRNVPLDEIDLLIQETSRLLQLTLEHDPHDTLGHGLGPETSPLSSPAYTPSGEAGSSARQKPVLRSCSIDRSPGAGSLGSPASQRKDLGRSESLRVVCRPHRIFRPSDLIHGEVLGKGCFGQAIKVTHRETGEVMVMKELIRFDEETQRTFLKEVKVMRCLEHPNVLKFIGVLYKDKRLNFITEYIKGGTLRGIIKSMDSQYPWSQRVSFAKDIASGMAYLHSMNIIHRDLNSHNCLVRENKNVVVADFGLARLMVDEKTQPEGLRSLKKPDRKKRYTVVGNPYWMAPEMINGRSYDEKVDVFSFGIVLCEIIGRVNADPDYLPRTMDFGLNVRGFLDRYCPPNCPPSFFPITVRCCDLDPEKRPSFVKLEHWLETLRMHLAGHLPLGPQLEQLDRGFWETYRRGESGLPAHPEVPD
T1 sequence (P43250 whole entry): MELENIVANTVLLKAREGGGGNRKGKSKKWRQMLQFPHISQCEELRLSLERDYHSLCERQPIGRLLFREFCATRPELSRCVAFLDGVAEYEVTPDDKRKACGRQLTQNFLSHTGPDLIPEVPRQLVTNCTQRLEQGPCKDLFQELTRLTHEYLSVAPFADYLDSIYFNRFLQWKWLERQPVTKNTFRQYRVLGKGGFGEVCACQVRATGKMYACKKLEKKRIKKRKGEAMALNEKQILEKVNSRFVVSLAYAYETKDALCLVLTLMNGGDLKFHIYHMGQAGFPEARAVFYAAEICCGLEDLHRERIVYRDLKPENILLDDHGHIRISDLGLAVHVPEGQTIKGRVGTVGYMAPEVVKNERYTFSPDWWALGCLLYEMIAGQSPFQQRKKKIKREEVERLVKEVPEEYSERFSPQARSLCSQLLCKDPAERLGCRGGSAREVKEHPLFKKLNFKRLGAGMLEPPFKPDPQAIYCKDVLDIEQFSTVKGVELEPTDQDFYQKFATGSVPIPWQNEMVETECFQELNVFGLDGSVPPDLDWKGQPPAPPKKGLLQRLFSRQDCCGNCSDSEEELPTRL

Row | Sequence | GRK6(h) % activity (GRK6(h)) [%] | CSK(h) % activity (CSK(h)) [%] | EphA8(h) % activity (EphA8(h)) [%] | Syk(h) % activity (Syk(h)) [%] | Tie2(Y897S)(h) % activity (Tie2(Y897S)(h)) [%] | TAK1(h) % activity (TAK1(h)) [%] | BrSK2(h) % activity (BrSK2(h)) [%] | LIMK1(h) % activity (LIMK1(h)) [%]
1 | YARAAARQARAKALNRQLGVA (Mammalian) [MMI-0200] | 132 | 33 | 133 | 36 | 85 | 124 | – | –
2 | HRRIKAWLKKIKALARQLGVAA (Mammalian) [MMI-0500] | 174 | 2 | 337 | 5 | 80 | – | 84 | 87
3 | KAFAKLAARLYRKALARQLGVAA [MMI-0400] | 141 | 16 | 146 | 9 | 87 | 177 | 86 | 92
4 | FAKLAARLYRKALARQLGVAA [MMI-0300] | 147 | 49 | 93 | 24 | 83 | 122 | 83 | 88
